Biological target: the molecule itself
Assay: cryo-EM structure; FliP, FliQ and FliR-His co-expressed in Salmonella SJW1368, complex solubilised with LMNG, purified and reconstituted in a peptidisc; single-particle analysis, C1 symmetry, 3.0 Å, closed form

B1: FliP (natural protein)
chain: QLPGLISQPLAGGGQSWSLSVQTLVFITSLTFLPAILLMMTSFTRIIIVFGLLRNALGTPSAPPNQVLLGLALFLTFFIMSPVIDKIYVDAYQPFSEQKISMQEALDKGAQPLRAFMLRQTREADLALFARLANSGPLQGPEAVPMRILLPAYVTSELKTAFQIGFTIFIPFLIIDLVIASVLMALGMMMVPPATIALPFKLMLFVLVDGWQLLMGSLAQSFYS
notes: FliP, Salmonella enterica serovar Typhimurium; signal peptide (residues 1 to 21) cleaved between Ala-21 and Gln-22 during membrane insertion; the mature protein begins at Gln-22; Five copies of FliP stand in the FliP5-FliQ4-FliR1 complex; also called mature FliP; FliP^1; source: membranes solubilised with 1% LMNG; reconstituted in a peptidisc
  stoichiometry N: 5

From article PMC12403130, “A β-cap on the FliPQR protein-export channel acts as the cap for initial flagellar rod assembly” (Proceedings of the National Academy of Sciences of the …, 2025)
